Test results as given in patent publication US20250092108A1 (published 2025).
Numbering of substitutions follows the chain as printed. In names and notes the source's numbering stands. Like-named read-outs stand apart in the source and are kept apart here.

B1: 24638 (Fc fusion)
chain: APTSSSTKKTQLQLEHLLLDLQMILNGISNHKNPRLARMLTFKFYMPEKATELKHLQCLEEELKPLEEALRLAPSKNFHLRPRDLISDVNVIVLELKGSETTFMCEYADETATIVEFLNRWITFSQSIISTLT
B2: CD25 (receptor)
chain: ELCDDDPPEIPHATFKAMAYKEGTMLNCECKRGFRRIKSGSLYMLCTGNSSHSSWDNQCQCTSSATRNTTKQVTPQPEEQKERKTTEMQSPMQPVDQASLPGHCREPPPWENEATERIYHFVVGQMVYYQCVQGYRALHRGPAESVCKMTHGKTRWTQPQLICTGEMETSQFPGEEKPQASPEGRPESETSC
B3: XENP26109 (Fc fusion)
chain 1: EPKSSDKTHTCPPCPAPPVAGPSVFLFPPKPKDTLMISRTPEVTCVVVDVKHEDPEVKFNWYVDGVEVHNAKTKPREEEYNSTYRVVSVLTVLHQDWLNGKEYKCKVSNKALPAPIEKTISKAKGQPREPQVYTLPPSREEMTKNQVSLTCDVSGFYPSDIAVEWESDGQPENNYKTTPPVLDSDGSFFLYSKLTVDKSRWEQGDVFSCSVMHEALHNHYTQKSLSLSPGK
chain 2: APASSSTKKTQLQLEHLLLNLQMILNGINNYKNPKLTRMLTFKFYMPKKATELKHLQCLEEELKPLEEVLKLAQSKNFHLRPRDLISNINVIVLELKGSETTFMCEYADETATIVEFLNRWITFSQSIISTLTEPKSSDKTHTCPPCPAPPVAGPSVFLFPPKPKDTLMISRTPEVTCVVVDVKHEDPEVKFNWYVDGVEVHNAKTKPREEQYNSTYRVVSVLTVLHQDWLNGKEYKCKVSNKALPAPIEKTISKAKGQPREPQVYTLPPSREQMTKNQVKLTCLVKGFYPSDIAVEWESNGQPENNYKTTPPVLDSDGSFFLYSKLTVDKSRWQQGNVFSCSVMHEALHNHYTQKSLSLSPGK
B4: XENP26105 (Fc fusion)
chain 1: B3 chain 1
chain 2: B3 chain 2 with T37R, K71N
B5: XENP14277 (prior art IL-2 variant, mutant 2-4 with Q126T as described in WO 2009/061853, without R38L) (ligand)
chain: APTSSSTKKTQLQLEHLLLDLQMILNGISNHKNPRLARMLTFKFYMPEKATELKHLQCLEEELKPLEEALRLAPSKNFHLRPRDLISDVNVIVLELKGSETTFMCEYADETATIVEFLNRWITFSTSIISTLTHHHHHHHH
B6: XENP14381 (prior art IL-2 variant, mutant 2-4 with Q126T, with R38L) (ligand)
chain: B5 chain with R38L
B7: 14192 R38E T41K C125S (protein)
chain: APTSSSTKKTQLQLEHLLLDLQMILNGINNYKNPKLTEMLKFKFYMPKKATELKHLQCLEEELKPLEEVLNLAQSKNFHLRPRDLISNINVIVLELKGSETTFMCEYADETATIVEFLNRWITFSQSIISTLT
B8: 14217 R38P T41R C125S (protein)
chain: B7 chain with E38P, K41R
B9: XENP14208 (T41M F42Y C125S) (protein)
chain: B7 chain with E38R, K41M, F42Y
B10: XENP14207 (T41D F42Y C125S) (protein)
chain: B7 chain with E38R, K41D, F42Y
B11: XENP14213 (R38Q F42Y C125S) (protein)
chain: B7 chain with E38Q, K41T, F42Y
B12: 14213 R38Q F42Y C125S (protein)
chain: B7 chain with E38Q, K41T, F42Y
B13: 14191 R38Q T41Q C125S (protein)
chain: B7 chain with E38Q, K41Q
B14: XENP14209 (T41Q F42Y C125S) (protein)
chain: B7 chain with E38R, K41Q, F42Y
B15: 14202 R38Q T41S C125S (protein)
chain: B7 chain with E38Q, K41S
B16: 14207 T41D F42Y C125S (protein)
chain: B7 chain with E38R, K41D, F42Y
B17: 14194 R38N T41Q C125S (protein)
chain: B7 chain with E38N, K41Q
B18: 14214 R38N T41R C125S (protein)
chain: B7 chain with E38N, K41R
B19: 14193 R38Q T41R C125S (protein)
chain: B7 chain with E38Q, K41R
B20: XENP14206 (T41E F42Y C125S) (protein)
chain: B7 chain with E38R, K41E, F42Y
B21: 14209 T41Q F42Y C125S (protein)
chain: B7 chain with E38R, K41Q, F42Y
B22: 14216 R38V T41R C125S (protein)
chain: B7 chain with E38V, K41R
B23: 14215 R38N T41K C125S (protein)
chain: B7 chain with E38N
B24: 14206 T41E F42Y C125S (protein)
chain: B7 chain with E38R, K41E, F42Y
B25: XENP14217 (R38P T41R C125S) (protein)
chain: B7 chain with E38P, K41R
B26: XENP14214 (R38N T41R C125S) (protein)
chain: B7 chain with E38N, K41R
B27: XENP14216 (R38V T41R C125S) (protein)
chain: B7 chain with E38V, K41R
B28: 14208 T41M F42Y C125S (protein)
chain: B7 chain with E38R, K41M, F42Y
B29: 14190 R38Q T41K C125S (protein)
chain: B7 chain with E38Q

Columns and labels:
[1] = molecular target: CD122:CD132; test: Octet
[2] = molecular target: B2; test: Octet
[3] = molecular target: 24640; test: Octet
[4] = molecular target: 24639; test: Octet
[5] = molecular target: 24729; test: Octet
[6] = molecular target: 24641; test: Octet
[7] = molecular target: 24636; test: Octet
[8] = molecular target: 24732; test: Octet
[9] = molecular target: 24725; test: Octet
[10] = molecular target: 24643; test: Octet
[11] = molecular target: 24728; test: Octet
[12] = molecular target: XENP26104; test: Octet
[13] = molecular target: XENP26088; test: Octet
[14] = molecular target: XENP26086; test: Octet
[15] = molecular target: XENP26093; test: Octet
[16] = molecular target: XENP26089; test: Octet
[17] = molecular target: XENP26108; test: Octet
[18] = molecular target: XENP26092; test: Octet
[19] = molecular target: XENP26096; test: Octet
[20] = molecular target: T1, human CD25 (IL-2Rα) (human, UniProt P01589 22-213); test: Octet
T1 chain: B2 chain

[21] = molecular target: CD122:CD132; test: Octet; remark: listed apart in the source
[22] = molecular target: T1, human CD25 (IL-2Rα); test: Biacore; pH 6.0
[23] = molecular target: T1, human CD25 (IL-2Rα); test: Biacore; pH 7.4
[24] = molecular target: T1, human CD25 (IL-2Rα); test: Biacore; pH 7.4
[25] = molecular target: T1, human CD25 (IL-2Rα); test: Biacore; pH 6.0
[26] = molecular target: T1, human CD25 (IL-2Rα); test: Biacore; pH 7.4
[27] = molecular target: T1, human CD25 (IL-2Rα); test: Biacore; pH 6.0

In the case of B1, the Kd [1] is reported as 146 nM and the Kd [2] is reported as 1.33 nM.

In the case of B2, the Kd [3] is reported as 1.14 nM, the Kd [4] is reported as 8.04 nM and the Kd [5] is reported as 25.5 nM. For the same binder, the Kd [6] was 12.7 nM, the Kd [7] was 14.5 nM and the Kd [8] was 91.2 nM. For the same binder, the Kd [9] was 19.6 nM, the Kd [10] was 26.6 nM and the Kd [11] was 41.8 nM. For the same binder, the Kd [12] was 14.7 nM, the Kd [13] was 16.6 nM and the Kd [14] was 16.9 nM. The Kd [15] was 21.3 nM, the Kd [16] was 14.4 nM and the Kd [17] was 27.7 nM. It also gave a Kd [18] of 26.4 nM and a Kd [19] of 39.2 nM.

Work on B3 yielded a Kd [20] of 28.5 nM and a Kd [21] of 57.3 nM.

In the case of B4, the Kd [20] is reported as 14.1 nM and the Kd [21] is reported as 36.4 nM.

Binder B5 has a Kd [22] of 190 nM and a Kd [23] of 2 nM.

With B6 the Kd [22] was 16.8 nM and the Kd [23] was 9.4 nM.

B7 was tested, and the Kd [24] was 172 nM and the Kd [25] was 31.1 nM.

In the case of B8, the Kd [26] is reported as 326 nM.

In the case of B9, the Kd [27] is reported as 83 nM.

Work on B10 yielded a Kd [27] of 319 nM.

For B11, the Kd [27] was 2430 nM.

With B12 the Kd [26] was 1110 nM.

B13 showed a Kd [24] of 196 nM and a Kd [25] of 2470 nM.

B14 gave a Kd [27] of 2630 nM.

Work on B15 yielded a Kd [24] of 1240 nM and a Kd [25] of 1710 nM.

B16 gave a Kd [26] of 139 nM.

Binder B17 has a Kd [25] of 84.6 nM.

Binder B18 has a Kd [26] of 149 nM.

Work on B19 yielded a Kd [24] of 458 nM and a Kd [25] of 533 nM.

In the case of B20, the Kd [27] is reported as 30300 nM.

B21 gave a Kd [26] of 5950 nM.

For B22, the Kd [26] was 214 nM.

With B23 the Kd [26] was 75.4 nM.

Work on B24 yielded a Kd [26] of 280 nM.

B25 gave a Kd [27] of 1710 nM.

B26 showed a Kd [27] of 57200 nM.

B27 showed a Kd [27] of 128 nM.

B28 showed a Kd [26] of 81 nM.

B29 showed a Kd [24] of 98.3 nM and a Kd [25] of 489 nM.
